Experimental data published in US20030148958A1 (PROCTER AND GAMBLE, published 2003).
Ends that are not written are not given here.

T1: corticotropin releasing factor 2 receptor
T1 sequence (Q13324 whole entry, species assumed, looked up): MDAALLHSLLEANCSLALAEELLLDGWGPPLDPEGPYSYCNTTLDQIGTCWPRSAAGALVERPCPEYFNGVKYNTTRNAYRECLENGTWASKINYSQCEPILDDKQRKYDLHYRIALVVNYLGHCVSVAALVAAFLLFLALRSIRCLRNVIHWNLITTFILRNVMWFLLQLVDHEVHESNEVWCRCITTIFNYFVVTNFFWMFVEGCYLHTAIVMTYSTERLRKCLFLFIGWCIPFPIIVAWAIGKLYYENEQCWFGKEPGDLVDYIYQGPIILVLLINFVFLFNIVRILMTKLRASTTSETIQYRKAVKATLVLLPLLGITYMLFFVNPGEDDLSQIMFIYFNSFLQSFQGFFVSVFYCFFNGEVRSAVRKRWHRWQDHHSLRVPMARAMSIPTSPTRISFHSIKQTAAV


Experiments:
[1] = molecular target: corticotropin releasing factor 1 receptor; assay: cell-based or functional assay
[2] = molecular target: T1, corticotropin releasing factor 2 …; assay: cell-based or functional assay
For CRF1R Emax in this document: reference of the scale not given here.
For CRF2R Emax in this document: reference of the scale not given here.

CRF1R EC50 [1] [nM] | CRF1R Emax [1] [%] | CRF2R EC50 [2] [nM] | CRF2R Emax [2] [%] | Binder
100 | 7.35 | 100 | 6.95 | SQEPPISLDLPLYLLREVLEMTKADQLAQQAHSNRKLLDIA-NH2 [SEQ ID NO 101]
100 | 4.25 | 100 | 7.6 | SQEPPISLDLPFELLREVLEMTKADQLAQQAHSNRKLLDIA-NH2 [SEQ ID NO 97]
100 | 5.75 | 100 | 4.85 | SQEPPISLDLPFGLLREVLEMTKADQLAQQAHSNRKLLDIA-NH2 [SEQ ID NO 103]
100 | 6.25 | 100 | 9.85 | SQEPPISLDLPIQLLREVLEMTKADQLAQQAHSNRKLLDIA-NH2 [SEQ ID NO 100]
100 | 4 | 100 | 5.5 | SQEPPISLDLPTGLLREVLEMTKADQLAQQAHSNRKLLDIA-NH2 [SEQ ID NO 98]
100 | 4.35 | 100 | 4.35 | SQEPPISLDLPTHLLREVLEMTKADQLAQQAHSNRKLLDIA-NH2 [SEQ ID NO 99]
100 | 7.8 | 100 | 13.5 | SQEPPISLDLPLHLLREVLEMTKADQLAQQAHSNRKLLDIA-NH2 [SEQ ID NO 102]

The remaining lines, values behind:

Binder | CRF1R EC50 [1] [nM] | CRF1R Emax [1] [%] | CRF2R EC50 [2] [nM] | CRF2R Emax [2] [%]
SQEIVLSLDVPIGLLREVLEMTKADQLAQQAHSNRKLLDIA-NH2 [SEQ ID NO 7] | 100 | 4 | 100 | 19
SQEPPISLDLPLQLLREVLEMTKADQLAQQAHSNRKLLDIA-NH2 [SEQ ID NO 95] | 100 | 5.55 | 100 | 8.25
SQEPPISLDLPTELLREVLEMTKADQLAQQAHSNRKIIDIA-NH2 [SEQ ID NO 92] | 100 | 4.6 | 100 | 15.8
SQEPPISLDLPIGLLREVLEMTKADQLAQQAHSNRKLLDIA-NH2 [SEQ ID NO 93] | 100 | 5 | 100 | 6.4
SQEPPISLDLPFQLLREVLEMTKADQLAQQAHSNRKLLDIA-NH2 [SEQ ID NO 91] | 100 | 4 | 100 | 7.1
SQEPPISLDLPIHLLREVLEMTKADQLAQQAHSNRKLLDIA-NH2 [SEQ ID NO 94] | 100 | 7.3 | 100 | 6.15
SQEPPISLDLPFYLLREVLEMTKADQLAQQAHSNRKLLDIA-NH2 [SEQ ID NO 96] | 100 | 16.3 | 100 | 12.5
SQEPPISLDLPLGLLREVLEMTKADQLAQQAHSNRKLLDIA-NH2 [SEQ ID NO 90] | 100 | 4 | 100 | 12.2
